Measured values as given in patent US6969760.

Target: T1, wild type EPO receptor (EPOR) expressed in DA3(EPOR) cells or 3T3 fibroblasts, P14753
T1 chain: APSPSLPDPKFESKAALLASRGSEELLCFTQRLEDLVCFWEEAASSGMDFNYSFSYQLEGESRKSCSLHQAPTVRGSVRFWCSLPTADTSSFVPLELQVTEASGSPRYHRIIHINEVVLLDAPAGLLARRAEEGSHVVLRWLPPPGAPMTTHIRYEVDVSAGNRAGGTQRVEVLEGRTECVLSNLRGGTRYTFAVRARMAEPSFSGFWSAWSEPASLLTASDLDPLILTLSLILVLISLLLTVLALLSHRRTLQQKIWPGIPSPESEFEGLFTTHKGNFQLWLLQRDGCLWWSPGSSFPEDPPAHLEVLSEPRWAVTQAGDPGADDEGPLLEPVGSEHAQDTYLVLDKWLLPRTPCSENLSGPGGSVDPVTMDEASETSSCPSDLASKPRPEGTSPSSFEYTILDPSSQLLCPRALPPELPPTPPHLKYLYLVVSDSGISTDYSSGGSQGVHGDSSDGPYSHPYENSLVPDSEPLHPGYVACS

B1: murine Jak2 protein tyrosine kinase (protein)
chain: MGMACLTMTEMEATSTSPVHQNGDIPGSANSVKQIEPVLQVYLYHSLGQAEGEYLKFPSGEYVAEEICVAASKACGITPVYHNMFALMSETERIWYPPNHVFHIDESTRHDILYRIRFYFPHWYCSGSSRTYRYGVSRGAEAPLLDDFVMSYLFAQWRHDFVHGWIKVPVTHETQEECLGMAVLDMMRIAKEKDQTPLAVYNSVSYKTFLPKCVRAKIQDYHILTRKRIRYRFRRFIQQFSQCKATARNLKLKYLINLETLQSAFYTEQFEVKESARGPSGEEIFATIIITGNGGIQWSRGKHKESETLTEQDVQLYCDFPDIIDVSIKQANQECSNESRIVTVHKQDGKVLEIELSSLKEALSFVSLIDGYYRLTADAHHYLCKEVAPPAVLENIHSNCHGPISMDFAISKLKKAGNQTGLYVLRCSPKDFNKYFLTFAVERENVIEYKHCLITKNENGEYNLSGTKRNFSNLKDLLNCYQMETVRSDSIIFQFTKCCPPKPKDKSNLLVFRTNGISDVQISPTLQRHNNVNQMVFHKIRNEDLIFNESLGQGTFTKIFKGVRREVGDYGQLHKTEVLLKVLDKAHRNYSESFFEAASMMSQLSHKHLVLNYGVCVCGEENILVQEFVKFGSLDTYLKKNKNSINILWKLGVAKQLAWAMHFLEEKSLIHGNVCAKNILLIREEDRRTGNPPFIKLSDPGISITVLPKDILQERIPWVPPECIENPKNLNLATDKWSFGTTLWEICSGGDKPLSALDSQRKLQFYEDKHQLPAPKWTELANLINNCMDYEPDFRPAFRAVIRDLNSLFTPDYELLTENDMLPNMRIGALGFSGAFEDRDPTQFEERHLKFLQQLGKGNFGSVEMCRYDPLQDNTGEVVAVKKLQHSTEEHLRDFEREIEILKSLQHDNIVKYKGVCYSAGRRNLRLIMEYLPYGSLRDYLQKHKERIDHKKLLQYTSQICKGMEYLGTKRYIHRDLATRNILVENENRVKIGDFGLTKVLPQDKEYYKVKEPGESPIFWYAPESLTESKFSVASDVWSFGVVLYELFTYIEKSKSPPVEFMRMIGNDKQGQMIVFHLIELLKSNGRLPRPEGCPDEIYVIMTECWNNNVSQRPSFRDLSFGWIKSGTV
With B1 the “EPO-induced tyrosine phosphorylation of Jak2 in 3T3 fibroblasts expressing EPOR (Jak2 immunoprecipitation, 4G10 blot)” value was “Following stimulation of the cells with EPO, a 130 kDa band, co-migrating with Jak2, was readily detected by a monoclonal antibody against phosphotyrosine (4G10)”.
